In article PMC4468133:

Biological target: HIV-1 integrase (HIV-1)

In the case of “lens-epithelium derived growth factor (LEDGF/p75) (from UniProt O75475 1-530) (natural protein)”, the LEDGF/p75-dependent activation of in vitro integration into PN (polynucleosome) templates, IN-LEDGF/p75 preformed complex against IN alone (radiolabelled donor, average of four templates) is reported as 5 fold.
